Results published in article PMC9719943, “Expression and structural analysis of human neuroligin 2 and neuroligin 3 implicated in autism spectrum disorders” (Frontiers in Endocrinology, 2022).

B1: extracellular domain of human NLGN2 (domain or fragment, UniProt Q8NFZ4 15-677, looked up)
chain: QRGGGGPGGGAPGGPGLGLGSLGEERFPVVNTAYGRVRGVRRELNNEILGPVVQFLGVPYATPPLGARRFQPPEAPASWPGVRNATTLPPACPQNLHGALPAIMLPVWFTDNLEAAATYVQNQSEDCLYLNLYVPTEDGPLTKKRDEATLNPPDTDIRDPGKKPVMLFLHGGSYMEGTGNMFDGSVLAAYGNVIVATLNYRLGVLGFLSTGDQAAKGNYGLLDQIQALRWLSENIAHFGGDPERITIFGSGAGASCVNLLILSHHSEGLFQKAIAQSGTAISSWSVNYQPLKYTRLLAAKVGCDREDSAEAVECLRRKPSRELVDQDVQPARYHIAFGPVVDGDVVPDDPEILMQQGEFLNYDMLIGVNQGEGLKFVEDSAESEDGVSASAFDFTVSNFVDNLYGYPEGKDVLRETIKFMYTDWADRDNGEMRRKTLLALFTDHQWVAPAVATAKLHADYQSPVYFYTFYHHCQAEGRPEWADAAHGDELPYVFGVPMVGATDLFPCNFSKNDVMLSAVVMTYWTNFAKTGDPNQPVPQDTKFIHTKPNRFEEVVWSKFNSKEKQYLHIGLKPRVRDNYRANKVAFWLELVPHLHNLHTELFTTTTRLPPYATRWPPRPPAGAPGTRRPPPPATLPPEPEPEPGPRAYDRFPGDSRDYSTELS
notes: neuroligin 2 (NLGN2), human, extracellular domain; Subcloned into the secretory vector pSecTAG2B; also called neuroligin 2; NLGN2 ectodomain; source: Expi293F (HEK293F) cells, transiently transfected, purified (nickel resin, Superose 6 SEC)
B2: full-length human NLGN3 (natural protein, UniProt Q9NZ94 38-848, looked up)
chain: QAPAPTVNTHFGKLRGARVPLPSEILGPVDQYLGVPYAAPPIGEKRFLPPEPPPSWSGIRNATHFPPVCPQNIHTAVPEVMLPVWFTANLDIVATYIQEPNEDCLYLNVYVPTEDVKRISKECARKPNKKICRKGGSGAKKQGEDLADNDGDEDEDIRDSGAKPVMVYIHGGSYMEGTGNMIDGSILASYGNVIVITLNYRVGVLGFLSTGDQAAKGNYGLLDQIQALRWVSENIAFFGGDPRRITVFGSGIGASCVSLLTLSHHSEGLFQRAIIQSGSALSSWAVNYQPVKYTSLLADKVGCNVLDTVDMVDCLRQKSAKELVEQDIQPARYHVAFGPVIDGDVIPDDPEILMEQGEFLNYDIMLGVNQGEGLKFVEGVVDPEDGVSGTDFDYSVSNFVDNLYGYPEGKDTLRETIKFMYTDWADRDNPETRRKTLVALFTDHQWVEPSVVTADLHARYGSPTYFYAFYHHCQSLMKPAWSDAAHGDEVPYVFGVPMVGPTDLFPCNFSKNDVMLSAVVMTYWTNFAKTGDPNKPVPQDTKFIHTKANRFEEVAWSKYNPRDQLYLHIGLKPRVRDHYRATKVAFWKHLVPHLYNLHDMFHYTSTTTKVPPPDTTHSSHITRRPNGKTWSTKRPAISPAYSNENAQGSWNGDQDAGPLLVENPRDYSTELSVTIAVGASLLFLNVLAFAALYYRKDKRRQEPLRQPSPQRGAGAPELGAAPEEELAALQLGPTHHECEAGPPHDTLRLTALPDYTLTLRRSPDDIPLMTPNTITMIPNSLVGLQTLHPYNTFAAGFNSTGLPHSHSTTRV
notes: neuroligin 3 (NLGN3), human, full-length gene in pCDNA3.1; UniProt ID Q9NZ94 printed for NLGN3; also called neuroligin 3

Target: the molecule itself
Assay: cryo-EM structure; purified NLGNs at 0.25 mg/ml on holey carbon grids; protein in 25 mM HEPES pH 7.5, 150 mM NaCl; homodimer, C2 symmetry

| Protein | stoichiometry N |
| --- | --- |
| B1 | 2 |
| B2 | 2 |
